Measurements from paper PMC3504387 (Chemmedchem, 2012).
Where no end group is shown, it is not given here. The star is where a group is joined. Biotin = O=C1N[C@H]2[C@H](CS[C@H]2CCCCC(=O)*)N1; Ahx = NCCCCCC(=O)O

T1: GST–PPARα fusion protein (purified ligand binding domain of PPARα)
T1 sequence (Q07869 whole entry, species assumed, looked up): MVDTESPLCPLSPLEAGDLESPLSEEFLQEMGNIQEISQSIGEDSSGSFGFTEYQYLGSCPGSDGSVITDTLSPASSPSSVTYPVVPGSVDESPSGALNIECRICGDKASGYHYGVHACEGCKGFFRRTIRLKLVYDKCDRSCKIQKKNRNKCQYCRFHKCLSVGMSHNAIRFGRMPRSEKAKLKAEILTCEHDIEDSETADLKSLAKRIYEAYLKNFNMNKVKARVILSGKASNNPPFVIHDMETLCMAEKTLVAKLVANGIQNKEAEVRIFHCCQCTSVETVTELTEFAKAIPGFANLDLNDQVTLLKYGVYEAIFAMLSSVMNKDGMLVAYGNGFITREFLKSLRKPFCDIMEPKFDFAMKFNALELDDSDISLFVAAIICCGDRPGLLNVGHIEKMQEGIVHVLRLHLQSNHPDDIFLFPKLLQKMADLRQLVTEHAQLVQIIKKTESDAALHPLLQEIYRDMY

T2: GST–PPARγ fusion protein (purified ligand binding domain of PPARγ)
T2 chain: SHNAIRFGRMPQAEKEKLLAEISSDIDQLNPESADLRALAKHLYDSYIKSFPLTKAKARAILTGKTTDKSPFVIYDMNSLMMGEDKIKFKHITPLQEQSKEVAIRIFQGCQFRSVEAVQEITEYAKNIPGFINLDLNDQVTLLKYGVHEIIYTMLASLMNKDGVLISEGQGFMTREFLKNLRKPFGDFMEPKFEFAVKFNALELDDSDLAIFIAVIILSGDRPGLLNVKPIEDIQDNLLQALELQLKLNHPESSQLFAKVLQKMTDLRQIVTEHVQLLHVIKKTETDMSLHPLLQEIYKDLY


Tests used:
[1] = molecular target: T1, GST–PPARα fusion protein (purified ligand binding domain of PPARα); test: FRET or BRET; homogeneous TR-FRET as a1, 12-concentration dose–response of aleglitazar; the EC50 is of the compound; delta ratio in % of the reference compound at 10 μM (RO4899100 for PPARα, edaglitazone for PPARγ)
[2] = molecular target: T1, GST–PPARα fusion protein (purified ligand binding domain of PPARα); test: FRET or BRET; homogeneous TR-FRET as a1, 12-concentration dose–response of RO4899100; the EC50 is of the compound; delta ratio in % of the reference compound at 10 μM (RO4899100 for PPARα, edaglitazone for PPARγ)
[3] = molecular target: T1, GST–PPARα fusion protein (purified ligand binding domain of PPARα); test: FRET or BRET; homogeneous TR-FRET as a1, 12-concentration dose–response of edaglitazone; the EC50 is of the compound; delta ratio in % of the reference compound at 10 μM (RO4899100 for PPARα, edaglitazone for PPARγ)
[4] = molecular target: T1, GST–PPARα fusion protein (purified ligand binding domain of PPARα); test: FRET or BRET; homogeneous TR-FRET as a1, 12-concentration dose–response of fenofibric acid; the EC50 is of the compound; delta ratio in % of the reference compound RO4899100 at 10 μM
[5] = molecular target: T2, GST–PPARγ fusion protein (purified …); test: FRET or BRET; homogeneous TR-FRET as a1, 12-concentration dose–response of pioglitazone; the EC50 is of the compound; delta ratio in % of the reference compound at 10 μM (RO4899100 for PPARα, edaglitazone for PPARγ); conditions: both partners purified
[6] = molecular target: T2, GST–PPARγ fusion protein (purified …); test: FRET or BRET; homogeneous TR-FRET as a1, 12-concentration dose–response of muraglitazar; the EC50 is of the compound; delta ratio in % of the reference compound at 10 μM (RO4899100 for PPARα, edaglitazone for PPARγ); conditions: both partners purified
[7] = molecular target: T2, GST–PPARγ fusion protein (purified …); test: FRET or BRET; homogeneous TR-FRET as a1, 12-concentration dose–response of rosiglitazone; the EC50 is of the compound; delta ratio in % of the reference compound at 10 μM (RO4899100 for PPARα, edaglitazone for PPARγ); conditions: both partners purified
[8] = molecular target: T1, GST–PPARα fusion protein (purified ligand binding domain of PPARα); test: FRET or BRET; homogeneous TR-FRET as a1, 12-concentration dose–response of tesaglitazar; the EC50 is of the compound; delta ratio in % of the reference compound at 10 μM (RO4899100 for PPARα, edaglitazone for PPARγ)
[9] = molecular target: T2, GST–PPARγ fusion protein (purified …); test: FRET or BRET; homogeneous TR-FRET as a1, 12-concentration dose–response of edaglitazone; the EC50 is of the compound; delta ratio in % of the reference compound at 10 μM (RO4899100 for PPARα, edaglitazone for PPARγ); conditions: both partners purified
[10] = molecular target: T2, GST–PPARγ fusion protein (purified …); test: FRET or BRET; homogeneous TR-FRET as a1, 12-concentration dose–response of aleglitazar; the EC50 is of the compound; delta ratio in % of the reference compound at 10 μM (RO4899100 for PPARα, edaglitazone for PPARγ); conditions: both partners purified
[11] = molecular target: T2, GST–PPARγ fusion protein (purified …); test: FRET or BRET; homogeneous TR-FRET as a1, 12-concentration dose–response of tesaglitazar; the EC50 is of the compound; delta ratio in % of the reference compound at 10 μM (RO4899100 for PPARα, edaglitazone for PPARγ); conditions: both partners purified
[12] = molecular target: T1, GST–PPARα fusion protein (purified ligand binding domain of PPARα); test: FRET or BRET; homogeneous TR-FRET as a1, 12-concentration dose–response of rosiglitazone; the EC50 is of the compound; delta ratio in % of the reference compound at 10 μM (RO4899100 for PPARα, edaglitazone for PPARγ)
[13] = molecular target: T1, GST–PPARα fusion protein (purified ligand binding domain of PPARα); test: FRET or BRET; homogeneous TR-FRET as a1, 12-concentration dose–response of muraglitazar; the EC50 is of the compound; delta ratio in % of the reference compound at 10 μM (RO4899100 for PPARα, edaglitazone for PPARγ)
[14] = molecular target: T2, GST–PPARγ fusion protein (purified …); test: FRET or BRET; homogeneous TR-FRET as a1, 12-concentration dose–response of farglitazar; the EC50 is of the compound; delta ratio in % of the reference compound edaglitazone at 10 μM; conditions: both partners purified

Row | Binder | EC50 of aleglitazar for recruitment [1] | delta ratio with aleglitazar [1] | EC50 of RO4899100 for recruitment [2] | EC50 of edaglitazone for recruitment [3] | delta ratio with edaglitazone [3] | EC50 of fenofibric acid for recruitment [4] | delta ratio with fenofibric acid [4] | EC50 of pioglitazone for recruitment [5] | EC50 of muraglitazar for recruitment [6] | EC50 of rosiglitazone for recruitment [7] | EC50 of tesaglitazar for recruitment [8] | EC50 of edaglitazone for recruitment [9] | EC50 of aleglitazar for recruitment [10] | EC50 of tesaglitazar for recruitment [11] | EC50 of muraglitazar for recruitment [13] | delta ratio with muraglitazar [13] | EC50 of farglitazar for recruitment [14] | delta ratio with tesaglitazar [8] | also measured
1 | {Biotin-Ahx}-DSKYSQTSHKLVQLLTTTAEQQLRH (source: synthetic peptide (Jerini or Biosynthan, Berlin)) [SRC1_M1 cofactor peptide (steroid receptor co-activator 1, motif 1)] | 2.9 nM | 94% | 16.1 nM | 867 nM | 41% | 4360 nM | 39% | 2260 nM | 35.6 nM | 240 nM | 427 nM | 38.1 nM | 11 nM | 226 nM | 186 nM | 74% | 8.6 nM | – | EC50 of rosiglitazone for recruitment [12]: 2630 nM; delta ratio with rosiglitazone [12]: 20%
2 | {Biotin-Ahx}-SRLHDSKGQTKLLQLLTTKSD (transcriptional intermediary factor 2 (TIF2), motif 1, residues 630-650; source: synthetic peptide (Jerini or Biosynthan, Berlin)) [TIF2_M1 cofactor peptide (transcriptional intermediary factor 2, motif 1)] | 2.1 nM | 53% | 8.6 nM | 945 nM | 26% | 2160 nM | 34% | – | 94.3 nM | 951 nM | 326 nM | 86.5 nM | 43.2 nM | 274 nM | 96.5 nM | 31% | 16.1 nM | 70% | –
3 | {Biotin-Ahx}-STHGTSLKEKHKILHRLLQDS [TIF2_M2 cofactor peptide (transcriptional intermediary factor 2, motif 2)] | 1.6 nM | 53% | 5.9 nM | 294 nM | 21% | 5200 nM | 44% | – | – | – | 182 nM | – | – | – | 34 nM | 33% | – | 54% | delta ratio with RO4899100 [2]: 100%
4 | {Biotin-Ahx}-SPKKKENALLRYLLDKDDTK [TIF2_M3 cofactor peptide (transcriptional intermediary factor 2, motif 3)] | 2.3 nM | 56% | 12.7 nM | 3670 nM | 32% | 1290 nM | 25% | – | – | – | 377 nM | – | – | – | 88.9 nM | 29% | – | 53% | delta ratio with RO4899100 [2]: 100%
5 | {Biotin-Ahx}-PKKENNALLRYLLDRDDPSDV (source: synthetic peptide (Jerini or Biosynthan, Berlin)) [RAC3_M3 cofactor peptide (receptor-associated co-activator 3, motif 3)] | 4.4 nM | 62% | 25.9 nM | 1920 nM | 24% | – | – | 1860 nM | 39.5 nM | 271 nM | 941 nM | 33.1 nM | 9.5 nM | 233 nM | 330 nM | 35% | – | 60% | –
6 | {Biotin-Ahx}-AVQEHASTNMGLEAIIRKALMGKYD (silencing mediator of retinoid and thyroid hormone receptors (SMRT), ID2, residues 2331-2355; also called SMRT2; source: synthetic peptide (Jerini or Biosynthan, Berlin)) | – | -51% | – | – | -20% | – | – | – | – | – | – | – | – | – | – | -28% | – | -26% | EC50 of aleglitazar for displacement [1]: 14.1 nM; EC50 of RO4899100 for displacement [2]: 108 nM; EC50 of edaglitazone for displacement [3]: 790 nM; EC50 of pioglitazone for displacement [5]: 3700 nM; EC50 of muraglitazar for displacement [6]: 60.3 nM; EC50 of rosiglitazone for displacement [7]: 333 nM; EC50 of tesaglitazar for displacement [8]: 1780 nM; EC50 of edaglitazone for displacement [9]: 41.6 nM; EC50 of aleglitazar for displacement [10]: 14.4 nM; EC50 of tesaglitazar for displacement [11]: 346 nM; EC50 of muraglitazar for displacement [13]: 563 nM; EC50 of farglitazar for displacement [14]: 11.6 nM
7 | {Biotin-Ahx}-LDASKKKESKDHQLLRYLLDKDEKD (source: synthetic peptide (Jerini or Biosynthan, Berlin)) [SRC1_M3 cofactor peptide (steroid receptor co-activator 1, motif 3)] | 2.4 nM | 53% | 4.9 nM | – | – | 3450 nM | 47% | 2120 nM | 37.4 nM | 241 nM | 111 nM | 38.1 nM | 11.3 nM | 196 nM | 8.4 nM | 23% | 12.1 nM | 52% | EC50 of rosiglitazone for recruitment [12]: 3070 nM; delta ratio with rosiglitazone [12]: 21%
8 | {Biotin-Ahx}-SNMHGSLLQEKHRILHKLLQNGNSP (source: synthetic peptide (Jerini or Biosynthan, Berlin)) [RAC3_M2 cofactor peptide (receptor-associated co-activator 3, motif 2)] | – | – | – | – | – | – | – | 1070 nM | 16.5 nM | 125 nM | – | 22.7 nM | 7.4 nM | 110 nM | – | – | 6.5 nM | – | –
